Experiment [1] deals with OL3:My4LMy5 complex (obscurin-like-1:myomesin heterodimer) (human) (UniProt O75147). As to the kind of experiment: SEC; Superdex S75 10/300; OL3:My4LMy5 complex injected at 3.0 and 8.2 mg/mL (0.082–0.225 mM); dimer of heterodimers to heterodimers. (In gel filtration, larger molecules generally elute earlier.)
The target is the same in experiment [2]. As to the kind of experiment: crystal structure; OL3:My4LMy5 complex at 3.0 mg/mL; 20% PEG8000, 0.1 M Tris-HCl pH 8.5, 0.2 M MgCl2, matrix microseeding; 3.1 Å, space group C2.
Experiment [3] has as its target T1, obscurin-like-1 third immunoglobulin domain (OL3) (human, UniProt O75147 251-339).
T1 construct: obscurin-like-1, human, third Ig domain (OL3); the printed contact residues F265 to V332 lie in it; Insoluble when expressed alone; obtained only by co-expression with myomesin; Construct limits are in the Supplemental Experimental Procedures; source: E. coli, co-expressed with myomesin from a bicistronic vector, purified as a complex (SEC); not shown: GST, N-terminal, cleaved
T1 sequence: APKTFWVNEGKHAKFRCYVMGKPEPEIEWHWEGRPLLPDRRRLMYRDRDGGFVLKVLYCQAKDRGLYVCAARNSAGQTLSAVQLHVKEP
As to the kind of experiment: SEC; GST-cleaved complexes co-expressed in E. coli from a bicistronic vector; SEC during purification. Particulars: both partners purified.

Experiment [4] addresses T2, obscurin third immunoglobulin domain (O3) (human, UniProt Q5VST9 236-331).
T2 construct: obscurin, human, third Ig domain (O3); Insoluble when expressed alone; source: E. coli, co-expressed with myomesin My4LMy5 from a bicistronic vector, purified as a complex (SEC); not shown: GST, N-terminal, cleaved
T2 sequence (looked up): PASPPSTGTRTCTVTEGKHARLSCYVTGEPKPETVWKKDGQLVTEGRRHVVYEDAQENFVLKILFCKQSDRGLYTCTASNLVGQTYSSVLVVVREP
The description is as above. The settings on record: both partners purified.

For “OL3:My4LMy5 complex (obscurin-like-1:myomesin heterodimer) (from UniProt O75147 251-339; P52179 510-739)”, in experiment [1], the dimer:monomer ratio at 8.2 mg/mL was determined as 30 % dimer and the stoichiometry N was 2. The molecule further came in with a stoichiometry N in experiment [2] of 2.

B1: myomesin region encompassing the fourth and fifth Fn-III domains (My4LMy5) (domain or fragment, human)
chain: PAAPLDVKCLEANKDYIIISWKQPAVDGGSPILGYFIDKCEVGTDSWSQCNDTPVKFARFPVTGLIEGRSYIFRVRAVNKMGIGFPSRVSEPVAALDPAEKARLKSRPSAPWTGQIIVTEEEPSEGIVPGPPTDLSVTEATRSYVVLSWKPPGQRGHEGIMYFVEKCEAGTENWQRVNTELPVKSPRFALFDLAEGKSYCFRVRCSNSAGVGEPSEATEVTVVGDKLDIP
notes: myomesin (MYOM1), human, Fn-III domains My4 and My5 with the linker L between them; My4 begins near residue 510 (My4LH is 510-618); My5 is in the crystallised protein but invisible in the electron density; Construct limits are in the Supplemental Experimental Procedures; also called My4L (name of the part visible in the crystal); source: E. coli, co-expressed with GST-OL3 or GST-O3 from a …
Turning to B1, the “stoichiometry N” value in experiment [3] and in experiment [4] was 1 throughout.

One may read the stoichiometry N as the number of molecules, sites or subunits per partner or assembly.

For the origin of these results see paper PMC5222588, “Binding of Myomesin to Obscurin-Like-1 at the Muscle M-Band Provides a Strategy for Isoform-Specific Mechanical Protection” (Structure(London, England:1993), 2017).
